# Patent US20190218261A1, “TARGETED ENHANCED DNA DEMETHYLATION” (The Jackson Laboratory, priority 2016, published 2019)
# B1: GADD45A-PUFa-TET1(CD): GADD45A at N-terminus of PUFa-TET1(CD); SEQ ID NO:104 (protein)
# chain: MTLEEFSAGEQKTERMDKVGDALEEVLSKALSQRTITVGVYEAAKLLNVDPDNVVLCLLAADEDDDRDVALQIHFTLIQAFCCENDINILRVSNPGRLAELLLLETDAGPAASEGAEQPPDLHCVLVTNPHSSQWKDPALSQLICFCRESRYMDQWVPVINLPERSRTGAATMIDGGGGSDPKKKRKVDPKKKRKVDPKKKRKVGSTGSRNDGGGGSGGGGSGGGGSGRAGILPPKKKRKVSRGRSRLLEDFRNNRYPNLQLREIAGHIMEFSQDQHGSRFIQLKLERATPAERQLVFNEILQAAYQLMVDVFGNYVIQKFFEFGSLEQKLALAERIRGHVLSLALQMYGSRVIEKALEFIPSDQQNEMVRELDGHVLKCVKDQNGNHVVQKCIECVQPQSLQFIIDAFKGQVFALSTHPYGCRVIQRILEHCLPDQTLPILEELHQHTEQLVQDQYGNYVIQHVLEHGRPEDKSKIVAEIRGNVLVLSQHKFASNVVEKCVTHASRTERAVLIDEVCTMNDGPHSALYTMMKDQYANYVVQKMIDVAEPGQRKIVMHKIRPHIATLRKYTYGKHILAKLEKYYMKNGVDLGDPKKKRKVDPKKKRKVGGRGGGGSGGGGSGGGGSGPAELPTCSCLDRVIQKDKGPYYTHLGAGPSVAAVREIMENRYGQKGNAIRIEIVVYTGKEGKSSHGCPIAKWVLRRSSDEEKVLCLVRQRTGHHCPTAVMVVLIMVWDGIPLPMADRLYTELTENLKSYNGHPTDRRCTLNENRTCTCQGIDPETCGASFSFGCSWSMYFNGCKFGRSPSPRRFRIDPSSPLHEKNLEDNLQSLATRLAPIYKQYAPVAYQNQVEYENVARECRLGSKEGRPFSGVTACLDFCAHPHRDIHNMNNGSTVVCTLTREDNRSLGVIPQDEQLHVLPLYKLSDTDEFGSKEGMEAKIKSGAIEVLAPRRKKRTCFTQPVPRSGKKRAAMMTEVLAHKIRAVEKKPIPRIKRKNNSTTTNNSKPSSLPTLGSNTETVQPEVKSETEPHFILKSSDNTKTYSLMPSAPHPVKEASPGFSWSPKTASATPAPLKNDATASCGFSERSSTPHCTMPSGRLSGANAAAADGPGISQLGEVAPLPTLSAPVMEPLINSEPSTGVTEPLTPHQPNHQPSFLTSPQDLASSPMEEDEQHSEADEPPSDEPLSDDPLSPAEEKLPHIDEYWSDSEHIFLDANIGGVAIAPAHGSVLIECARRELHATTPVEHPNRNHPTRLSLVFYQHKNLNKPQHGFELNKIKFEAKEAKNKKMKASEQKDQAANEGPEQSSEVNELNQIPSHKALTLTHDNVVTVSPYALTHVAGPYNHWVID
# Assays:
# [1] = tested on: hMLH1 expression (methylation-silenced hMLH1 promoter) in HEK293T cells; test: hMLH1 mRNA levels by TaqMan qRT-PCR in transfected HEK293T cells; assay type: cell-based, human
# Description: To test the system, HEK293T cells were transfected with Casilio-ME components including Ct or Nt-fusion TET1-effector and a combination of 3 or 2 sgRNAs. Relative levels of hMLH1 mRNA were determined in TaqMan assays by using RNA extracted from cells 60 hours post-transfection and GAPDH as endogenous control for normalization of qRT-PCR measurements.
# Cell culture and transfection. HEK293T cells were cultivated in Dulbecco's modified Eagle's medium (DMEM)(Sigma) with 10% fetal bovine serum (FBS)(Lonza), 4% Glutamax (Gibco), 1% Sodium Pyruvate (Gibco) and penicillin-streptomycin (Gibco) in an incubator set to 37° C. and 5% CO2. When indicated cells were treated with 2.5 μM or 5 μM 5-Azacytidine (sigma) as indicated with a daily change of medium containing freshly diluted drug. Cells were seeded into 12-well plates at 150,000 cells per well the day before being transfected with 100 ng of dCas9 construct, 100 ng of modified sgRNA construct and 200 ng of PUF-fusion with Attractene transfection reagent according to manufacturer's instructions (Qiagen). In dCas9-direct fusion experiments, cells were transfected with 200 ng dCas9-fusion constructs and 200 ng of modified sgRNA constructs. Transfected cells were harvested 60 hours after transfection, or otherwise indicated, and cell pellets were used for extractions of RNA, genomic DNA and protein.
# Quantitative RT-PCR analysis. Cells were harvested, washed with Dulbecco's phosphate-buffered saline (dPBS), centrifuged at 125×g for 5 min and then the flash-frozen pellets were stored at −80° C. RNA was extracted using RNeasy Plus Mini Kit according to the manufacturer's instructions (Qiagen). cDNA libraries were made using Applied Biosystems High Capacity RNA-to-cDNA kit with 200 ng to 1 μg of RNA. TaqMan gene expression assays (Applied Biosystems) were designed using GAPDH (Hs03929097, VIC) as endogenous control and hMLH1 (Hs00179866, FAM) as target. TaqMan Universal Master Mix II, with UNG (Applied Biosystems) was used for Quantitative PCR (qPCR), with 2 μl of diluted cDNA used for each reaction. Activation was analyzed with the Applied Biosystems ViiA7 instrument. Gene expression levels were calculated by “delta delta Ct” algorithm and normalized to control samples.
# HEK293T cells were cultivated in Dulbecco's modified Eagle's medium (DMEM) (Sigma) with 10% fetal bovine serum (FBS) (Lonza), 4% Glutamax (Gibco), 1% Sodium Pyruvate (Gibco) and penicillin-streptomycin (Gibco) in an incubator set to 37° C. and 5% CO2. Cells were seeded into 12-well plates at 150,000 cells per well the day before being transfected with 100 ng of dCas9 construct, 100 ng of modified sgRNA construct and 200 ng of PUF-fusion with Attractene transfection reagent according to manufacturer's instructions (Qiagen). Transfected cells were harvested 3 days after transfection, or otherwise indicated, and cell pellets were used for RNA extractions.
# Cells were harvested, washed with Dulbecco's phosphate-buffered saline (dPBS), centrifuged at 125×g for 5 min and then the flash-frozen pellets were stored at −80° C. RNA was extracted using RNeasy Plus Mini Kit according to the manufacturer's instructions (Qiagen). cDNA libraries were made using Applied Biosystems High Capacity RNA-to-cDNA kit with 200 ng to 2 μg of RNA. TaqMan gene expression assays (Applied Biosystems) were designed using GAPDH (Hs03929097, VIC) as endogenous control and hMLH1 (Hs00179866, FAM) as target. TaqMan Universal Master Mix II, with UNG (Applied Biosystems) was used for Quantitative PCR (qPCR), with 2 μl of diluted cDNA used for each reaction. Activation was analyzed with the Applied Biosystems ViiA7 instrument. Gene expression levels were calculated by “delta delta Ct” algorithm and normalized to control samples.
# [2] = tested on: MLH1 protein in HEK293T cells; test: Western blot of MLH1 protein with anti-hMLH1 monoclonal antibody; assay type: cell-based, human; settings: HEK293T collected 3 day after transfection
# Description: To determine the effect of Casilio-ME targeting on MLH1 protein synthesis, Western blot analyses were performed on total protein extracted from HEK293T transfected cells as well as untransfected HEK293 and AzaC-treated HEK293T cells using anti-hMLH1 monoclonal antibody. […] Casilio-ME-mediated induction of MLH1 synthesis is still remarkable and could be improved by, for example, tilling multiple guide RNAs to augment the range and efficiency of CpG demethylation to achieving better activation of hMLH1 expression.
# Western blot analysis. Protein from cell extracts (30 μg) were separated by electrophoresis on 10% SDS-polyacrylamide gels and then transferred to nitrocellulose membranes at 100 V for 1 hour using Bjerrum Schafer-Nielsen Buffer with SDS. Blocked membrane in 5% Blotting-Grade Blocker (BioRad) in TBS-T were then incubated overnight at 4° C. with the indicated antibodies, and the protein bands were detected using Horseradish peroxidase-conjugated secondary antibodies and Clarity Western ECL Substrate according to manufacturer's instructions (BioRad). Gels were imaged using a G:Box (Syngene).
molecule,measurement,setting,value
B1,enhancement of hMLH1 expression relative to PUFa-TET1(CD) alone,"[1]; GADD45A two-in-one effectors, HEK293T, TaqMan",approximately 9 fold
same,ranking of activation among GADD45A and TET1(CD) fusion configurations,[1]; methylation-silenced hMLH1,highest activity
same,MLH1 protein amount by Western blot (whole cell extracts),[2],higher protein amounts
